In article PMC4547976:

Assays:
activin A = activin A (UniProt P08476)
GDF11 = biological target: T1, GDF11 (UniProt O95390)
T1 sequence: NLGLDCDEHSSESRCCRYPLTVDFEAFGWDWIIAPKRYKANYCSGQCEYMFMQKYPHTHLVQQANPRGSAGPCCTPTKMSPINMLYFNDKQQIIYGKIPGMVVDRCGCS

myostatin (MSTN) = biological target: T2, myostatin (MSTN) (UniProt O14793)
T2 sequence: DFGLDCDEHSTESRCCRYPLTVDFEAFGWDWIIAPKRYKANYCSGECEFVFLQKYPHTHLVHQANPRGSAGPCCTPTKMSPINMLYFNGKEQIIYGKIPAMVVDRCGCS

Sequence of UniProt P08476 (P08476 311-426): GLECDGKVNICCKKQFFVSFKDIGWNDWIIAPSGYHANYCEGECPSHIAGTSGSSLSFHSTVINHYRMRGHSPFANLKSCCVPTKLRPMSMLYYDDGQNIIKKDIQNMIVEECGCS

Substance | IC50 of suppression of 1 nM activin A activity, pGL3-(CAGA)12 luciferase reporter in HEK293 cells (180-0 nM FST-type protein) (activin A) | IC50 of suppression of 1 nM GDF11 activity, pGL3-(CAGA)12 luciferase reporter in HEK293 cells (180-0 nM FST-type protein) (GDF11) | IC50 of suppression of 1 nM MSTN activity, pGL3-(CAGA)12 luciferase reporter in HEK293 cells (180-0 nM FST-type protein) (myostatin (MSTN)) | IC50 of suppression of 1 nM GDF11 activity, pGL3-(CAGA)12 luciferase reporter in HEK293 cells (GDF11) | IC50 of suppression of 1 nM MSTN activity, pGL3-(CAGA)12 luciferase reporter in HEK293 cells (myostatin (MSTN))
MBP-FST288 (chicken follistatin FST288 fused to maltose-binding protein) (natural protein) | 0.00396 µM | 0.00164 µM | 0.00201 µM | – | –
MBP-FST315 (MBP-fused chicken follistatin FST315) (from UniProt Q90844 29-343) (natural protein) | – | – | – | 0.00635 µM | 0.00481 µM
MBP-NDFSD1 (chicken follistatin N-terminal domain and FSD1 fused to maltose-binding protein) (domain or fragment) | 0.0153 µM | 0.0579 µM | 0.0689 µM | – | –
MBP-NDFSD1/1 (chicken follistatin N-terminal domain, FSD1 and a second FSD1 fused to maltose-binding protein) (domain or fragment) | – | 0.0262 µM | 0.064 µM | – | –
MBP-NDFSD1/2 (chicken follistatin N-terminal domain, FSD1 and FSD2 fused to maltose-binding protein) (domain or fragment) | 0.00859 µM | 0.00356 µM | 0.0105 µM | – | –
